Biological target: human plasma fibronectin (human)
Test: ITC; 35 μM peptide titrated into the cell with 2.7 μM human plasma fibronectin; PBS pH 7.4; 25 °C; one set of sites model; duplicates

Chain of human plasma fibronectin (human) (P02751 other isoform, or with tags, fused parts or gaps): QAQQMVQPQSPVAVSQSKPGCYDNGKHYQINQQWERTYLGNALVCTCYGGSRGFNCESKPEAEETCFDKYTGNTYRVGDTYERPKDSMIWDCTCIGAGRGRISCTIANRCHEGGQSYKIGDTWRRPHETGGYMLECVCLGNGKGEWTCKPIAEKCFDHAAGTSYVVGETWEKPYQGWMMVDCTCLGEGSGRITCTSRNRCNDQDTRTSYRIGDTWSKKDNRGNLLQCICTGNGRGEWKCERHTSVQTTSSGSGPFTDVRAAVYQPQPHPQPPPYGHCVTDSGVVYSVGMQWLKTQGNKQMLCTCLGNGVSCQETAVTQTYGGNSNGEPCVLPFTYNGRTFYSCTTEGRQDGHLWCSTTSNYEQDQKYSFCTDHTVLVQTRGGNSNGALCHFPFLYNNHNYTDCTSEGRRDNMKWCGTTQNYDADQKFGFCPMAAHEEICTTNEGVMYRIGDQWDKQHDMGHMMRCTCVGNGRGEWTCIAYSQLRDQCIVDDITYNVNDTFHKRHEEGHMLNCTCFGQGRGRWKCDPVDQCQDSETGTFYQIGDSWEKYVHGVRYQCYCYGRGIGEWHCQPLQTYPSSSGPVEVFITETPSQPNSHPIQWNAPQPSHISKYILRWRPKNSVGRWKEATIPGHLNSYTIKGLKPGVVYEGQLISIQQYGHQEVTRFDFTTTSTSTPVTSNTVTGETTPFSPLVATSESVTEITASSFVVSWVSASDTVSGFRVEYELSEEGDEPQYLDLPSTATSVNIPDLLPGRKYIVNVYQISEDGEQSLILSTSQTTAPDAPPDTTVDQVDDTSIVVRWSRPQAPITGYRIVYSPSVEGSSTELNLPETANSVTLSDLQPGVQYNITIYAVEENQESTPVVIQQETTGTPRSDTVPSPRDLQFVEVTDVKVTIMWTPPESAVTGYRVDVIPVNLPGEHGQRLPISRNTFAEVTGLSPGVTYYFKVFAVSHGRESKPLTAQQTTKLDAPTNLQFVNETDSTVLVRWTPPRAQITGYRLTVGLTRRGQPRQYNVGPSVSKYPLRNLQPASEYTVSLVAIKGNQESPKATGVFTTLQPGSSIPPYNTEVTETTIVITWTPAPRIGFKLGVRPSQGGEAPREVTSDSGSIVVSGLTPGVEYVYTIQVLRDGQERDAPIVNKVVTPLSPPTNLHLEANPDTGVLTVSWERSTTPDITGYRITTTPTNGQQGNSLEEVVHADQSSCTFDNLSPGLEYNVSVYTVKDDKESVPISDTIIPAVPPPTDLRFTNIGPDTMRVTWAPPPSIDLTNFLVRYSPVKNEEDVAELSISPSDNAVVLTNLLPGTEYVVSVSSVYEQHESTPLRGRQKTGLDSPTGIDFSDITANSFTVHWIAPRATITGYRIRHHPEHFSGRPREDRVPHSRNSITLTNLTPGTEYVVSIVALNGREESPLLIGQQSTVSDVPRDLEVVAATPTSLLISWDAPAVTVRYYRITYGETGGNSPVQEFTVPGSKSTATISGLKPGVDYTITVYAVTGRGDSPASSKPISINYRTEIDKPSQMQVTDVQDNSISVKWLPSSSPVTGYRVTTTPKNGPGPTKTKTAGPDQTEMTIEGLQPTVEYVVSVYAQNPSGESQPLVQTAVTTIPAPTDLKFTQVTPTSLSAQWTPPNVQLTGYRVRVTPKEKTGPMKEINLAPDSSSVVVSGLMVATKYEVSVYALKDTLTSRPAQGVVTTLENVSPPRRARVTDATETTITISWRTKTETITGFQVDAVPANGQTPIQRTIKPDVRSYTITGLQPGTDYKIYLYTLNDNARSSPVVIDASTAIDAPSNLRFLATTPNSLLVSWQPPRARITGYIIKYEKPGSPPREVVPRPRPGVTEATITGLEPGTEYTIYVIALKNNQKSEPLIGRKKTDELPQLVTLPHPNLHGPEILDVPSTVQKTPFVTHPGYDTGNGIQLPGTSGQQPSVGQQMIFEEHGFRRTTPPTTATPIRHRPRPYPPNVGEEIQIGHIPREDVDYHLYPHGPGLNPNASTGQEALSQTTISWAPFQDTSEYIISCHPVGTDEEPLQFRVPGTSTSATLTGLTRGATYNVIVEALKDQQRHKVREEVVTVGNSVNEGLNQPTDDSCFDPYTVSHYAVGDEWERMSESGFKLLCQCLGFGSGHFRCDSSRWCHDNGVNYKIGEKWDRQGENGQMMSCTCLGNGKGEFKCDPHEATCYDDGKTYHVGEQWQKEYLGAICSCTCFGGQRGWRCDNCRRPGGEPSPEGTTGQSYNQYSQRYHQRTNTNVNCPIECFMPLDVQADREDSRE

| Substance | Kd | dH | stoichiometry N |
| --- | --- | --- | --- |
| Functional Upstream Domain (FUD) peptide (peptide; other documents disagree on this pair) | 4.3 nM | -33 kcal/mol | 1.47 |
| singly sulfo-Cy5 labeled FUD peptide (peptide; other documents disagree on this pair) | 4.7 nM | -35.8 kcal/mol | 1.48 |
| sulfo-Cy5 labeled 20 kDa PEG-FUD (peptide; other documents disagree on this pair) | 13 nM | -35 kcal/mol | 1.5 |

Reference: PMC6612524
